Substitutions are numbered along the chain they refer to.
T1: human CD203c His-tagged recombinant protein (human, UniProt O14638 49-875, limits assumed)
T1 construct: also called ENPP3; not shown: His tag
T1 sequence (looked up): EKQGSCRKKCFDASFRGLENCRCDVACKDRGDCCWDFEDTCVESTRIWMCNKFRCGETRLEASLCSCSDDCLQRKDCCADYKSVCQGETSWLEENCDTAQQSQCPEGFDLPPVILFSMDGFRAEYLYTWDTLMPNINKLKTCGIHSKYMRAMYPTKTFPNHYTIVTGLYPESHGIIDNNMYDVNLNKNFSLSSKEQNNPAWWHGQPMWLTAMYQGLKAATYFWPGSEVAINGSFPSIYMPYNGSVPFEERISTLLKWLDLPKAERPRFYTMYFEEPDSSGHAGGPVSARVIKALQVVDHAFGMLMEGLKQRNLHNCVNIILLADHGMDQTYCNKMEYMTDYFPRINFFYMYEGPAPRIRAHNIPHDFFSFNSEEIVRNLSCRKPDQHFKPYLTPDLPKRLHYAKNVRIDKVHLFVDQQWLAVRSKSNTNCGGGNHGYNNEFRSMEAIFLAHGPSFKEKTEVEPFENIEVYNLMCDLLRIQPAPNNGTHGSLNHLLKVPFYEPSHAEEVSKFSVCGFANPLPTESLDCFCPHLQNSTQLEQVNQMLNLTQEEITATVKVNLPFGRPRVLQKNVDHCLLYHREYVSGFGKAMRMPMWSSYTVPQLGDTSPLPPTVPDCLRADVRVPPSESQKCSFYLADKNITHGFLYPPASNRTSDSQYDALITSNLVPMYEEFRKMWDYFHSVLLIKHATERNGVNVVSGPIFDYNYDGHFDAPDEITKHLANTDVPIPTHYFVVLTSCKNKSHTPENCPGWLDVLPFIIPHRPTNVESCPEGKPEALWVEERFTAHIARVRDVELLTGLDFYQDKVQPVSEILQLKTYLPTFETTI

T2: human CD203c expressed on the surface of KU812 cells (human, UniProt O14638 1-875)
T2 construct: whole, on cells; also called cell-surface CD203c; cell surface CD203c on KU812 cells
T2 sequence (looked up): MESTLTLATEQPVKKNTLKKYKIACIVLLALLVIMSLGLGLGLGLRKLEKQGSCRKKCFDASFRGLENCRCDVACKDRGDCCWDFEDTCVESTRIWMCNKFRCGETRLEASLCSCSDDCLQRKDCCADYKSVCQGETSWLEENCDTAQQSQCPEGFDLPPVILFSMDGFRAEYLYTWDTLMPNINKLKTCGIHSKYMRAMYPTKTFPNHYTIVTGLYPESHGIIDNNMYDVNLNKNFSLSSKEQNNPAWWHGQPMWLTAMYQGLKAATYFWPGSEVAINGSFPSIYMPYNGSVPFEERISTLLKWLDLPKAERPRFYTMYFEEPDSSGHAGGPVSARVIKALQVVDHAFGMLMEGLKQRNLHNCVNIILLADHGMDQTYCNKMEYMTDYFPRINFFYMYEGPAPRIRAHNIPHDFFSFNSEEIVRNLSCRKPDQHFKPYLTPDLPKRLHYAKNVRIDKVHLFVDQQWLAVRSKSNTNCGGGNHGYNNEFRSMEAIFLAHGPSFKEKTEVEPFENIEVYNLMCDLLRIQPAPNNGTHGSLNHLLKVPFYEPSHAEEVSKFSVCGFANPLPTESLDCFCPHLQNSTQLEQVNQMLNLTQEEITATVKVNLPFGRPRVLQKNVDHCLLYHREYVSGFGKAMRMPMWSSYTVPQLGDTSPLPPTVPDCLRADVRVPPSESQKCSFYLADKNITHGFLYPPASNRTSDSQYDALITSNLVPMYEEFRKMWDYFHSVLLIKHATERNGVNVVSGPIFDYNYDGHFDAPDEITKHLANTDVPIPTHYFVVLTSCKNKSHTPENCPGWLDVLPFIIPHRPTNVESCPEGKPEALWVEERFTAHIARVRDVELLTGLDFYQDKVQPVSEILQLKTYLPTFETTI

T3: rhesus monkey CD203c His-tagged recombinant protein (rhesus monkey, UniProt F6TH66 31-874)
T3 construct: also called rhesus CD203c; not shown: His tag
T3 sequence: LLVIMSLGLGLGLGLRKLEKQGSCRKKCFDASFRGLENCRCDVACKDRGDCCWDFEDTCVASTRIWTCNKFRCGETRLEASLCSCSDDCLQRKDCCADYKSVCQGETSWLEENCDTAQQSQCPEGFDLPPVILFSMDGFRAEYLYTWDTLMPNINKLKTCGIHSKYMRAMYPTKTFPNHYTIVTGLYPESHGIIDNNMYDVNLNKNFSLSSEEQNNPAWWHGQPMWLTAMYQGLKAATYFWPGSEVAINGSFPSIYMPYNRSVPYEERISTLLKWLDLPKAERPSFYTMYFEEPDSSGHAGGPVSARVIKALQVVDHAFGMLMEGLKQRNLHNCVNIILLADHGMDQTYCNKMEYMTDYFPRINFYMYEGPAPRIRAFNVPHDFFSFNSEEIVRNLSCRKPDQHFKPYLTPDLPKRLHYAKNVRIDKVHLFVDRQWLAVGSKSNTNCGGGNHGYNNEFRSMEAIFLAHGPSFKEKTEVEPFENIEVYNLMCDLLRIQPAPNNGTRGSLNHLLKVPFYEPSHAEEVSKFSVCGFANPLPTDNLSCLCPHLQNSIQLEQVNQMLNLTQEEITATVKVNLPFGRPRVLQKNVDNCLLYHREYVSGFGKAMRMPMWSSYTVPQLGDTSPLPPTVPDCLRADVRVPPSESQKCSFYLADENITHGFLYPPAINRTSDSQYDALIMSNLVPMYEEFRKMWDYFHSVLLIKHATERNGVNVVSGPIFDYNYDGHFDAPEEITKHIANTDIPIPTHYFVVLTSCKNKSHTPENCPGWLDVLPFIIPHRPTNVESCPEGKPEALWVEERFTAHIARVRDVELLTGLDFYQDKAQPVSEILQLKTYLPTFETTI

B1: F6/MH1 common light chain bispecific (anti-CD203c F6 x anti-c-Kit MH1) (bispecific antibody, V domains shown)
VH 1: QVQLVQSGAEVKKPGASVKVSCKASGYTFTDYYMNWVRQAPGQGLEWMGRIYPGSGNTYYAQKFQGRVTMTRDTSTSTVYMELSSLRSEDTAVYYCARGVYYYDYWGQGTLVTVSS
VH 2: EVQLVQSGAEVKKPGESLKISCKGSGYRFASNWIGWVRQMPGKGLEWMGEIYPGDSNTRYSPSFQGQVTISADKSISTAYLQWSSLKASDTAMYYCARKDYYYYAMDVWGQGTTVTVSS
VL: DIQMTQSPSSLSASVGDRVTITCRASQGIRTNLAWFQQKPGKAPKSLIYAASSLQSGVPSRFSGSGSGTDFTLTISSLQPEDFATYYCQQYNSYPRTFGGGTKVEIK
notes: Knob-in-hole IgG1null bispecific with human Ckappa; also called F6/MH1 bispecific molecule
B2: bispecific pair with alternative common light chain VL1: MH1 VH / 2.7_1 VH / VL1 (bispecific antibody, V domains shown)
VH 1: B1 VH 1
VH 2: EVQLVESGPGLVKPSETLSLTCTVSGGSISSSSYYWGWIRQPPGKGLEWIGSMYYSGSTYHNPSLKSRVIISVDTSKNQFSLKLSSVTAADTAVYYCARHYITVAGIFDYWGQGTLVTVSS
VL: QSVLTQPPSASGTPGQRATISCRASQGIRTNLAWYQQVPGTAPKLLIYAASSLQSGVPSRFSGSKSGTSASLAISGLQSEDEADYYCQQYNSYPRTFGGGTKLTVL
notes: Format as tested (bispecific or separate IgGs) is not described beyond 'bispecific pairs'
B3: bispecific pair with alternative common light chain VL4: MH1 VH / 2.14_1.2 VH / VL4 (bispecific antibody, V domains shown)
VH 1: B1 VH 1
VH 2: QVQLQESGPGLVKPSQTLSLTCTVSGGSISSGGYYWSWIRQHPGKGLEWIGIIYYSGSTYYNPSLKSRVTISVDTSKNQFSLKLNSVTAADTAVFYCARVAIVTTIPGGMDVWGQGTTVTVSS
VL: EIVLTQSPDFQSVTPKEKVTITCRASQGIRTNLAWYQQKPDQSPKLLIKYASQSFSGVPSRFSGSGSGTDFTLTINSLEAEDAATYYCQQYNSYPRTFGQGTKVEIK
B4: bispecific pair with alternative common light chain VL2: MH1 VH / 2.7_1.2 VH / VL2 (bispecific antibody, V domains shown)
VH 1: B1 VH 1
VH 2: B2 VH 2
VL: B2 VL with A49S, A50N, S51N, S52Q, L53R, Q54P, S59D
B5: 10 (antibody, V domains shown)
VH: B1 VH 2 with A30T, N32Y, E50I, N57D, Y104G
VL: B1 VL
notes: also called variant 10; 10 VH domain
B6: 13 (antibody, V domains shown)
VH: B1 VH 2 with A30T, N32Y, E50I, N57D, Y104G, A105S
VL: B1 VL
notes: also called variant 13; 13 VH domain
B7: 18 (antibody, V domains shown)
VH: B1 VH 2 with A30T, N32Y, E50I, N57D, Y104D, V108Y
VL: B1 VL
notes: also called variant 18; 18 VH domain
B8: A5 (antibody, V domains shown)
VH: B1 VH 2 with A30S, N32Y, W33R, N57K
VL: B1 VL
notes: also called variant A5; A5 VH domain
B9: 12 (antibody, V domains shown)
VH: B1 VH 2 with A30T, N32Y, E50I, N57D, Y104G, A105I
VL: B1 VL
notes: also called variant 12; 12 VH domain
B10: 26 (antibody, V domains shown)
VH: B1 VH 2 with N32H, N57D, Y60I
VL: B1 VL
notes: also called variant 26; 26 VH domain
B11: 17 (antibody, V domains shown)
VH: B1 VH 2 with A30T, N32Y, E50I, N57D, Y104N, D107P
VL: B1 VL
notes: also called variant 17; 17 VH domain
B12: 23 (antibody, V domains shown)
VH: B1 VH 2 with A30G, N32Y, N57K
VL: B1 VL
notes: also called variant 23; 23 VH domain
B13: C4 (antibody, V domains shown)
VH: B1 VH 2 with A30G, N32Y, E50D, D55N, N57D
VL: B1 VL
notes: also called variant C4; C4 VH domain
B14: 14 (antibody, V domains shown)
VH: B1 VH 2 with A30T, N32Y, E50I, N57D, Y104G, M106L
VL: B1 VL
notes: also called variant 14; 14 VH domain
B15: 15 (antibody, V domains shown)
VH: B1 VH 2 with A30T, N32Y, E50I, N57D, Y104G, A105T
VL: B1 VL
notes: also called variant 15; 15 VH domain
B16: 11 (antibody, V domains shown)
VH: B1 VH 2 with A30T, N32Y, E50I, N57D, Y104G, M106F
VL: B1 VL
notes: also called variant 11; 11 VH domain

Target: c-Kit (antigen of the binding assay of FIG. 9A) (Homo sapiens (Human), UniProt P10721 26-524)
Sequence (P10721 26-524 limits assumed): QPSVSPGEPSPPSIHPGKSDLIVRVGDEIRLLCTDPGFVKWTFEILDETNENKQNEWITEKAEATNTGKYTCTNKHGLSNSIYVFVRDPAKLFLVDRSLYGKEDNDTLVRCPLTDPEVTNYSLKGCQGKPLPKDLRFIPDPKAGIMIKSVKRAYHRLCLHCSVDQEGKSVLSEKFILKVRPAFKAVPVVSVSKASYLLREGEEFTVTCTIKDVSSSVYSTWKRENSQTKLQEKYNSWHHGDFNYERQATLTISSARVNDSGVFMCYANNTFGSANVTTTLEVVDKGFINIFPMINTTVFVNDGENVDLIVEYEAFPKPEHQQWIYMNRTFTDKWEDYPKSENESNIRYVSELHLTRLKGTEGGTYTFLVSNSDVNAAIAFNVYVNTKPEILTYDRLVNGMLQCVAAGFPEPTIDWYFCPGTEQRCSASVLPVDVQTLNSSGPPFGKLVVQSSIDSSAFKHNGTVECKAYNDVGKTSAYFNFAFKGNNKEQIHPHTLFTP
Experiment: plate binding assay on Human c-KIT, A450-A630 (ratio corrected)

EC50 (read off the curve) [µg/mL] | Binder
~0.5 | B1
~0.06 | B2
~0.06 | B3
~0.06 | B4

Target: T1, human CD203c His-tagged recombinant …
Experiment: direct binding ELISA on human CD203c, absorbance (blank corrected)

binding result | EC50 (read off the curve) [µg/mL] | Binder
binds | – | B5
binds | – | B6
binds | – | B7
binds | – | B8
– | ~0.04 | B9
binds | – | B10
binds | – | B11
binds | – | B12
binds | – | B13
binds | – | B14
binds | – | B15
binds | – | B16

Target: T2, human CD203c expressed on the surface …
Experiment: flow cytometry on KU812 cells, MFI (530/30 - 488nm) of live cells

binding result | Binder
binds | B5
binds | B8
binds | B11
binds | B13
binds | B15
binds | B16

Target: T3, rhesus monkey CD203c His-tagged …
Experiment: direct binding ELISA on rhesus CD203c, absorbance (blank corrected)

binding result | Binder
binds | B5
binds | B6
binds | B7
binds | B9
binds | B10
binds | B11
binds | B14
binds | B15
binds | B16

Reference: patent publication US20260028424A1 (GRANULAR THERAPEUTICS, published 2026)
